Ends that are not written are not given here.
Columns and labels:
Assay type in all cases: binding
[1] = biological target: T1, integrin αVβ6 (Homo sapiens, UniProt P06756+P18564); test: Competition study, 125ISIB-echistatin vs ligands on coated αVβ6; settings: competition with 20 nM 125ISIB-echistatin, recombinant human αVβ6 coated at 1.8 µg/mL, IBB pH 7.4 / 0.5% BSA, 2 h room temperature, duplicate wells, gamma counter, five-parameter logistic
T1 construct: purchased R&D System; Minneapolis, MN, USA
T1 sequence (P06756 31-992 limits assumed): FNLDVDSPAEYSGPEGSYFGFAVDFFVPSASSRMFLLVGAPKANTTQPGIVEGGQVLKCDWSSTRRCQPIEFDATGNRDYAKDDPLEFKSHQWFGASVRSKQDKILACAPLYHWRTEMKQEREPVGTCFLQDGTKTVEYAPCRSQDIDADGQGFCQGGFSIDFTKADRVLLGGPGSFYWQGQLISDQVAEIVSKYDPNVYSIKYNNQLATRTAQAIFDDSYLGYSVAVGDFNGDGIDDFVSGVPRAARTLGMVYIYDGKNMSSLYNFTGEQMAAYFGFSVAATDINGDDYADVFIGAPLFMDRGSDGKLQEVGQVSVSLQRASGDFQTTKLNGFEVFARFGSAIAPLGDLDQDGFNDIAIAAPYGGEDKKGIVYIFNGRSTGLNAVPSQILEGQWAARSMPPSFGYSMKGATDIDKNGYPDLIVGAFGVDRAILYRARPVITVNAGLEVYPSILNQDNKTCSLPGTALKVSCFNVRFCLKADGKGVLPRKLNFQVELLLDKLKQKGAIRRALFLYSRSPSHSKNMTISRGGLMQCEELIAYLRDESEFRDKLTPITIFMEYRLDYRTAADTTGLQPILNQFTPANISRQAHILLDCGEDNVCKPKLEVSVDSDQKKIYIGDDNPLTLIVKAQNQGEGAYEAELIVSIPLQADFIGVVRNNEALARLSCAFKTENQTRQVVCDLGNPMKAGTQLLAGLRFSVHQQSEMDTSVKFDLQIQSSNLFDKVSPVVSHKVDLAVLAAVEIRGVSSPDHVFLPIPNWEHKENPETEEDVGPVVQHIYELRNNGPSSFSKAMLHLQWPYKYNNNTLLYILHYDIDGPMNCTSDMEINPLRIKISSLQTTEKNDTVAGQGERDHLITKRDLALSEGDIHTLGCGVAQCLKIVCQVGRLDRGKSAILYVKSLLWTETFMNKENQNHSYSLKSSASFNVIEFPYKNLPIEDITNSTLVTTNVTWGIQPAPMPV
T1 sequence (P18564 22-707 limits assumed): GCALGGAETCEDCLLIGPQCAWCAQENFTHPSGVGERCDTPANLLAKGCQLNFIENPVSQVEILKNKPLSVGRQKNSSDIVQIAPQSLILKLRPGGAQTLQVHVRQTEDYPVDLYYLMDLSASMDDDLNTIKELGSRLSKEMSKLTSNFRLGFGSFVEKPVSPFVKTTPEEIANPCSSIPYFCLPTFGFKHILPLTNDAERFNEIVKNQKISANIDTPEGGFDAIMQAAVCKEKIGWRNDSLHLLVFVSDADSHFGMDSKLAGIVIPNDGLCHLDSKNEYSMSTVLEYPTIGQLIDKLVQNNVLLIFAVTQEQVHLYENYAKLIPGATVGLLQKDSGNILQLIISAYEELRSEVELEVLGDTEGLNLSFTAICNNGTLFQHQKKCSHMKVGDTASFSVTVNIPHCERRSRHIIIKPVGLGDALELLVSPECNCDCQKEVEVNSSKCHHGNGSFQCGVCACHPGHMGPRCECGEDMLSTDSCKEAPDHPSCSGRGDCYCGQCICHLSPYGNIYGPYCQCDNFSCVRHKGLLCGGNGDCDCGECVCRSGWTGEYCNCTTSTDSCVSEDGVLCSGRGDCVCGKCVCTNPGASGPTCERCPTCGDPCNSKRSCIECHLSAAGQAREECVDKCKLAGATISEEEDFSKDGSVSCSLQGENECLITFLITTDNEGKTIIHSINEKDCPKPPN
Experimental: (§1) A competition study was performed to investigate the interaction of VTN(381–397 a.a.) with five different integrins. Radiolabeled echistatin, a disintegrin known to bind integrin receptors, was used as a tracer for the binding assays. Lyophilized echistatin was provided by Bachem (Bubendorf, Switzerland) and radiolabeled by conjugation with a radioiodinated benzoate (^125ISIB) to the epsilon amino group of lysine side chains. For the five integrins, α5β1, αVβ1, αVβ3, αVβ5, and αVβ6 (R&D System; Minneapolis, MN, USA), a solution at 1.8 µg/mL was prepared with integrin-binding buffer (IBB; 20 mM Tris pH 7.4, 150 mM NaCl, 2 mM CaCl2, 1 mM MgCl2, 1 mM MnCl2). Nunc Maxisorp Module plates were coated overnight at 4 °C with integrin complex at 1.8 µg/mL. After the wells were washed with sample buffer (IBB, 0.5% BSA), blocking solution (IBB, 2% BSA) was added, and the microplate was incubated for 2 h at room temperature. The wells were then washed three times with IBB/0.5% BSA. Then, ^125ISIB-echistatin was diluted in sample buffer to fixed concentrations of 4, 4, 8, 8, and 20 nM for α5β1, αVβ1, αVβ3, αVβ5, and αVβ6 competition studies, respectively. The ^125ISIB-echistatin was mixed with sample buffer at a ratio of 1:1 (total binding = control well) or with increasing concentrations of ligands (Supplementary information SI1) [complete VTN, VTN(381–397 a.a.), VTN(365–381 a.a.)] at a ratio 1:1 and added to wells in duplicate. We used 1,4,7-triazacyclononane-1,4,7-triacetic acid (NOTA) as a negative control. […] After rinsing, bound radioactivity was quantified using a gamma counter. The percentage of relative binding of radiolabeled echistatin was calculated as follows: radioactivity in the test well*100/radioactivity in the reference well. […] For comparison of the potency of ligands in inhibiting bound ^125ISIB-echistatin for different integrin complexes, the half-maximal inhibitory concentration (IC50) was calculated. The IC50 value was determined by constructing a dose–response curve and examining the effect of different concentrations of ligands on ^125ISIB-echistatin binding. […]
To determine if VTN(381–397 a.a.) could interact with integrins, we investigated its ability to compete with radiolabeled echistatin for binding to five different integrin complexes: α5β1, αVβ1, αVβ3, αVβ5 and αVβ6. […] First, the binding affinity of echistatin to the five integrins was measured by determining the equilibrium dissociation constant (KD). […] The fixed concentration of radiolabeled echistatin was determined according to its KD value. For each ligand concentration, the relative binding of ^125ISIB-echistatin to coated integrins was then measured, and values were plotted versus the logarithm of ligand concentration.

[2] = biological target: T2, integrin α5β1 (Homo sapiens, UniProt P05556+P08648); test: Competition study, 125ISIB-echistatin vs ligands on coated α5β1; settings: competition with 4 nM 125ISIB-echistatin, recombinant human α5β1 coated at 1.8 µg/mL, IBB pH 7.4 / 0.5% BSA, 2 h room temperature, duplicate wells
T2 construct: purchased R&D System; Minneapolis, MN, USA
T2 sequence (P08648 42-995 limits assumed): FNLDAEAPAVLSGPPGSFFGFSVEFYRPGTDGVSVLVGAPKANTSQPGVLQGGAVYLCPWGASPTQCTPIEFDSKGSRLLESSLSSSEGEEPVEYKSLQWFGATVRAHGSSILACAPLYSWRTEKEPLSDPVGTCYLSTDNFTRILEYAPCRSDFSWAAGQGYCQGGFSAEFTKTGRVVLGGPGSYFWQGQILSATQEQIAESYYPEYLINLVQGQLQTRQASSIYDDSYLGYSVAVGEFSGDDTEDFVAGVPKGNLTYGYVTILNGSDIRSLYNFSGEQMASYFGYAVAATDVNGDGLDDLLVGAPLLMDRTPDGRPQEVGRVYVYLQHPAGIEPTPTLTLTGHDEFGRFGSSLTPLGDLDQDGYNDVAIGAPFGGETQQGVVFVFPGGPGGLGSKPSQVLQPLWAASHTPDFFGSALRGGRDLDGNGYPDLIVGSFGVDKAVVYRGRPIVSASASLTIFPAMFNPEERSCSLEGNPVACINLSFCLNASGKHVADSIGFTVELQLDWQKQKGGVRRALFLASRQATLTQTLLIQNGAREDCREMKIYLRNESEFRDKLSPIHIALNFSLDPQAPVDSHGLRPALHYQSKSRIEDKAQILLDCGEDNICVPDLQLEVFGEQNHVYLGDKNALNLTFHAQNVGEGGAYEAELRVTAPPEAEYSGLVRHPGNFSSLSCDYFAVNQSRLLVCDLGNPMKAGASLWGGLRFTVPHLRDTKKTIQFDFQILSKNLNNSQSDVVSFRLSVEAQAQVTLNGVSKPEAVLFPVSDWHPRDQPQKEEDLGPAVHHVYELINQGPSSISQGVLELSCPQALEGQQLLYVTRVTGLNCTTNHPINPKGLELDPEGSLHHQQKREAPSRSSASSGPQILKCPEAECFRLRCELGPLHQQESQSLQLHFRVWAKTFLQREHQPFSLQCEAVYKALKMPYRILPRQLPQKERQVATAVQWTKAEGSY
T2 sequence (P05556 21-728 limits assumed): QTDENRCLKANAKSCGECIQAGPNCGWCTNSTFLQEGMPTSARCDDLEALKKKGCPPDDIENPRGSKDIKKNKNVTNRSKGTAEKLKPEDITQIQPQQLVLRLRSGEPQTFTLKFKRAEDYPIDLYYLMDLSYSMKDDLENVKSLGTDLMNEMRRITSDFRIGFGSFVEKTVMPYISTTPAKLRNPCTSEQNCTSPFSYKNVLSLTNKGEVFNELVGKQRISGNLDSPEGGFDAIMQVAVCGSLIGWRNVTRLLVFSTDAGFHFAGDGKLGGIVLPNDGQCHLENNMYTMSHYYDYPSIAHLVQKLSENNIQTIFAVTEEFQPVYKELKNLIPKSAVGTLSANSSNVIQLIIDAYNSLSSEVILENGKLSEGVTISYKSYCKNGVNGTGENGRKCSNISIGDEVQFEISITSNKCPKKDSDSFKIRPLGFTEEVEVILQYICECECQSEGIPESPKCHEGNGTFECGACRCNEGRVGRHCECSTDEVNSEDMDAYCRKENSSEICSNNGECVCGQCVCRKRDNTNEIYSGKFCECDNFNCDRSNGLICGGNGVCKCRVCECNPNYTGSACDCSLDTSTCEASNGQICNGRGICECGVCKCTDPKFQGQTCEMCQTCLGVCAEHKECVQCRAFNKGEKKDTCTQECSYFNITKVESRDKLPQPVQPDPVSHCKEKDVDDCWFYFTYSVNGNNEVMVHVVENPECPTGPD
Experimental: as §1, with “µg/mL.” for “µg/mL. After the wells were washed with sample buffer (IBB, 0.5% BSA), blocking solution (IBB, 2% BSA) was added, and the microplate was incubated for 2 h at room temperature. The wells were then washed three times with IBB/0.5% BSA. Then, ^125ISIB-echistatin was diluted in sample buffer to fixed concentrations of 4, 4, 8, 8, and 20 nM for α5β1, αVβ1, αVβ3, αVβ5, and αVβ6 competition studies, respectively. The ^125ISIB-echistatin was mixed with sample buffer at a ratio of 1:1 (total binding = control well) or with increasing concentrations of ligands (Supplementary information SI1) [complete VTN, VTN(381–397 a.a.), VTN(365–381 a.a.)] at a ratio 1:1 and added to wells in duplicate. We used 1,4,7-triazacyclononane-1,4,7-triacetic acid (NOTA) as a negative control.”

[3] = biological target: T3, integrin αVβ1 (Homo sapiens, UniProt P05556+P06756); test: Competition study, 125ISIB-echistatin vs ligands on coated αVβ1; settings: competition with 4 nM 125ISIB-echistatin, recombinant human αVβ1 coated at 1.8 µg/mL, IBB pH 7.4 / 0.5% BSA, 2 h room temperature, duplicate wells
T3 construct: purchased R&D System; Minneapolis, MN, USA
T3 sequence (P06756 31-992 limits assumed): as the sequence (P06756 31-992 limits assumed) above
T3 sequence (P05556 21-728 limits assumed): as the sequence (P05556 21-728 limits assumed) above
Experimental: as §1, with “µg/mL.” for “µg/mL. After the wells were washed with sample buffer (IBB, 0.5% BSA), blocking solution (IBB, 2% BSA) was added, and the microplate was incubated for 2 h at room temperature. The wells were then washed three times with IBB/0.5% BSA. Then, ^125ISIB-echistatin was diluted in sample buffer to fixed concentrations of 4, 4, 8, 8, and 20 nM for α5β1, αVβ1, αVβ3, αVβ5, and αVβ6 competition studies, respectively. The ^125ISIB-echistatin was mixed with sample buffer at a ratio of 1:1 (total binding = control well) or with increasing concentrations of ligands (Supplementary information SI1) [complete VTN, VTN(381–397 a.a.), VTN(365–381 a.a.)] at a ratio 1:1 and added to wells in duplicate. We used 1,4,7-triazacyclononane-1,4,7-triacetic acid (NOTA) as a negative control.”

[4] = biological target: T4, integrin αVβ3 (Homo sapiens, UniProt P05106+P06756); test: Competition study, 125ISIB-echistatin vs ligands on coated αVβ3; settings: competition with 8 nM 125ISIB-echistatin, recombinant human αVβ3 coated at 1.8 µg/mL, IBB pH 7.4 / 0.5% BSA, 2 h room temperature, duplicate wells
T4 construct: purchased R&D System; Minneapolis, MN, USA
T4 sequence (P06756 31-992 limits assumed): as the sequence (P06756 31-992 limits assumed) above
T4 sequence (P05106 27-718 limits assumed): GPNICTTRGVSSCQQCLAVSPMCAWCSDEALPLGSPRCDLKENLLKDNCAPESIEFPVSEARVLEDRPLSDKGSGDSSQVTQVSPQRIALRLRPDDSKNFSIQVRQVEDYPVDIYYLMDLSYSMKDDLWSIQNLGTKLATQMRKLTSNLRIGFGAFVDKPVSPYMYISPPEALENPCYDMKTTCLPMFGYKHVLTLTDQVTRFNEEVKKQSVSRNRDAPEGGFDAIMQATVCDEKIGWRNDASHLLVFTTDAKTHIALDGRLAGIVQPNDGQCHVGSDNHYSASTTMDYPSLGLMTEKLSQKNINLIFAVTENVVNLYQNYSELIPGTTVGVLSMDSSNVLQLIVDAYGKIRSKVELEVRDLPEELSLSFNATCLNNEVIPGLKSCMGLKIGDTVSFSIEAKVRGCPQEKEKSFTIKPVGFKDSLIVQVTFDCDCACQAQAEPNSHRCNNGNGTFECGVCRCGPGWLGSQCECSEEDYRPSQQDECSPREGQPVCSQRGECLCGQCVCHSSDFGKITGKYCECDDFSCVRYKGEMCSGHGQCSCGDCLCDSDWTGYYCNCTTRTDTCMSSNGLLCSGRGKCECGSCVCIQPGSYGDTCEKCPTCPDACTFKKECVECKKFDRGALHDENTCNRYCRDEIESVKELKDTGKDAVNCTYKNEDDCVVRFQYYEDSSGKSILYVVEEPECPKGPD
Experimental: as §1, with “µg/mL.” for “µg/mL. After the wells were washed with sample buffer (IBB, 0.5% BSA), blocking solution (IBB, 2% BSA) was added, and the microplate was incubated for 2 h at room temperature. The wells were then washed three times with IBB/0.5% BSA. Then, ^125ISIB-echistatin was diluted in sample buffer to fixed concentrations of 4, 4, 8, 8, and 20 nM for α5β1, αVβ1, αVβ3, αVβ5, and αVβ6 competition studies, respectively. The ^125ISIB-echistatin was mixed with sample buffer at a ratio of 1:1 (total binding = control well) or with increasing concentrations of ligands (Supplementary information SI1) [complete VTN, VTN(381–397 a.a.), VTN(365–381 a.a.)] at a ratio 1:1 and added to wells in duplicate. We used 1,4,7-triazacyclononane-1,4,7-triacetic acid (NOTA) as a negative control.”

[5] = biological target: T5, integrin αVβ5 (Homo sapiens, UniProt P06756+P18084); test: Competition study, 125ISIB-echistatin vs ligands on coated αVβ5; settings: competition with 8 nM 125ISIB-echistatin, recombinant human αVβ5 coated at 1.8 µg/mL, IBB pH 7.4 / 0.5% BSA, 2 h room temperature, duplicate wells
T5 construct: purchased R&D System; Minneapolis, MN, USA
T5 sequence (P06756 31-992 limits assumed): as the sequence (P06756 31-992 limits assumed) above
T5 sequence (P18084 24-719 limits assumed): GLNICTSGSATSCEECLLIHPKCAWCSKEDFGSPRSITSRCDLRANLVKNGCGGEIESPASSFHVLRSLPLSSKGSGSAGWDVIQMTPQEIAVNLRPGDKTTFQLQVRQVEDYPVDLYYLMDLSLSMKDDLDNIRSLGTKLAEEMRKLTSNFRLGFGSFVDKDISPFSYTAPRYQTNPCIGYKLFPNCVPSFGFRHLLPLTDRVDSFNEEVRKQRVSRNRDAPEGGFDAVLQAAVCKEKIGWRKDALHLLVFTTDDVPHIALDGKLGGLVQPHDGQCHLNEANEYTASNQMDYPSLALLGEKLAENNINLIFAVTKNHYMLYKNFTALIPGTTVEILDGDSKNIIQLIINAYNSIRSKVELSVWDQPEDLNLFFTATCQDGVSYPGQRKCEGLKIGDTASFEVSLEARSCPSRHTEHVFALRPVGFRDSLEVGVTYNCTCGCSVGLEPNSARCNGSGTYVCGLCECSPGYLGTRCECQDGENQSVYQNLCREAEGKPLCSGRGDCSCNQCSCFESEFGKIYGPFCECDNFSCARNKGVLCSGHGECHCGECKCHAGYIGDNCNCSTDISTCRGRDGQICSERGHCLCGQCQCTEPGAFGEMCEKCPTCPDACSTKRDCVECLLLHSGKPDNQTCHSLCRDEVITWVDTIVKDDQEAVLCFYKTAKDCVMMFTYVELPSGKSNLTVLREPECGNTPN
Experimental: as §1, with “µg/mL.” for “µg/mL. After the wells were washed with sample buffer (IBB, 0.5% BSA), blocking solution (IBB, 2% BSA) was added, and the microplate was incubated for 2 h at room temperature. The wells were then washed three times with IBB/0.5% BSA. Then, ^125ISIB-echistatin was diluted in sample buffer to fixed concentrations of 4, 4, 8, 8, and 20 nM for α5β1, αVβ1, αVβ3, αVβ5, and αVβ6 competition studies, respectively. The ^125ISIB-echistatin was mixed with sample buffer at a ratio of 1:1 (total binding = control well) or with increasing concentrations of ligands (Supplementary information SI1) [complete VTN, VTN(381–397 a.a.), VTN(365–381 a.a.)] at a ratio 1:1 and added to wells in duplicate. We used 1,4,7-triazacyclononane-1,4,7-triacetic acid (NOTA) as a negative control.”

[6] = biological target: T2, integrin α5β1; test: Saturation assay with radiolabeled echistatin, α5β1; settings: increasing radiolabeled echistatin, integrin coated at 1.8 µg/mL
Experimental: (§2) To determine if VTN(381–397 a.a.) could interact with integrins, we investigated its ability to compete with radiolabeled echistatin for binding to five different integrin complexes: α5β1, αVβ1, αVβ3, αVβ5 and αVβ6. We also tested the binding affinity of the whole VTN protein and another VTN fragment, VTN(365–381 a.a), as previously described by Maile et al.,[33]. First, the binding affinity of echistatin to the five integrins was measured by determining the equilibrium dissociation constant (KD). KD was evaluated by saturation assays involving addition of increasing concentrations of radiolabeled echistatin to a constant concentration of integrins (coated at 1.8 µg/mL). […] Subsequently, competitive experiments were performed using increasing concentrations of ligand and a fixed amount of radiolabeled echistatin. The fixed concentration of radiolabeled echistatin was determined according to its KD value. For each ligand concentration, the relative binding of ^125ISIB-echistatin to coated integrins was then measured, and values were plotted versus the logarithm of ligand concentration.

[7] = biological target: T3, integrin αVβ1; test: Saturation assay with radiolabeled echistatin, αVβ1; settings: increasing radiolabeled echistatin, integrin coated at 1.8 µg/mL
Experimental: as §2

[8] = biological target: T4, integrin αVβ3; test: Saturation assay with radiolabeled echistatin, αVβ3; settings: increasing radiolabeled echistatin, integrin coated at 1.8 µg/mL
Experimental: as §2

[9] = biological target: T5, integrin αVβ5; test: Saturation assay with radiolabeled echistatin, αVβ5; settings: increasing radiolabeled echistatin, integrin coated at 1.8 µg/mL
Experimental: as §2

[10] = biological target: T1, integrin αVβ6; test: Saturation assay with radiolabeled echistatin, αVβ6; settings: increasing radiolabeled echistatin, integrin coated at 1.8 µg/mL
Experimental: as §2

Question: How did the IC50 [1] turn out when “Echistatin (QCESGPCCRNCKFLKEGTICKRARGDDMDDYCNGKTCDCPRNPHKGPAT; disulfide (positions not given here); not fully specified (bridges); also: Lys ε-amino groups conjugated with 125I-iodobenzoate (125ISIB), positions not given here) [tracer radiolabeled with radioiodinated benzoate (125ISIB) at lysine side chains]” was run?
Answer: Its IC50 is 14 nM.

Question: What about the IC50 [2] of the same substance?
Answer: Its IC50 is 2 nM.

Question: And the IC50 [3]?
Answer: The IC50 was 1.5 nM.

Question: What about the IC50 [4] of the same substance?
Answer: Its IC50 is 3.7 nM.

Question: And the IC50 [5]?
Answer: The IC50 was 4 nM.

Question: What about the Kd [6] of the same substance?
Answer: The Kd was 1.48 nM.

Question: And the Kd [7]?
Answer: Its Kd is 0.99 nM.

Question: And the Kd [8]?
Answer: Its Kd is 3.17 nM.

Question: What about the Kd [9] of the same substance?
Answer: Its Kd is 3.46 nM.

Question: What about the Kd [10] of the same substance?
Answer: The Kd was 17.1 nM.
